Among the data in paper PMC9998937 are binding values, retold here.

This data set deals with T1, ArcR (Staphylococcus aureus NCTC8325) (UniProt Q2FUY1).
T1 sequence: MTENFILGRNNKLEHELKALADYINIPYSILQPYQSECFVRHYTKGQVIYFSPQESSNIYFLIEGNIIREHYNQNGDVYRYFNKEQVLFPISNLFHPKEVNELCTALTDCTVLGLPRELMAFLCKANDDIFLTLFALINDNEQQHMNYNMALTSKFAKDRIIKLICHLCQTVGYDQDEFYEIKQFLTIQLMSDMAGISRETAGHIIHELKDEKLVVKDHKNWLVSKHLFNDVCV
The data set can be described thus: EMSA. A general note: A gel shift assay detects complexes by their altered migration in electrophoresis.

For the sequence “ACACCAGTTAACTTTTTGTCTTGTTGTGACATAGTCATCCCTCCACAATTTATAATAATTATAATTTAATACATATTATAATTTAACCCCATCAAAATTACAATTAAACATGCTCAAGATGATTAAAAAATCAGAAAATTTTAATTTTTTCGCTTTACAGTACTAAATAGTTATTGAATAGTACACTTAAAAAGCTTACAATAATGGGTATATTTAAATAGATGGGAGACTAAATATGGAAGAT (double strand) [katA promoter region]”, the binding entry is recorded as “binds”. Under “AGCGCGTGTTGTTATGTCGCGAATGGTAATCTTTTCTAAATCTTTTTCTTGTAGTAATTTAGTGAACGCTTGTTTAATGGAGGACTTTGTCTTTCTAATTCGCCTATCTTCTTTCAAAAATAAATCAACCTCCTTGTGTTATTGAACAATGTGGGTGTATTTGTCTATTAATGAACGTATTGATGAACATTGTGTATTGTTTATTCCCACTTACATATTATAATAGACAACATGCGAAATATTCAACACATTGTCTAATAAGGAGGT (double strand) [tetA promoter region]” stands “no binding”.
